These results are taken from patent US20250179196A1 (Janssen / Centocor, published 2025).

Sequences and labels used below:
T1: rat IL-23R extracellular domain (ECD) protein (rat)
T1 construct: also called rat IL-23R ECD; F1LX96 amino acids 24-354
T1 chain: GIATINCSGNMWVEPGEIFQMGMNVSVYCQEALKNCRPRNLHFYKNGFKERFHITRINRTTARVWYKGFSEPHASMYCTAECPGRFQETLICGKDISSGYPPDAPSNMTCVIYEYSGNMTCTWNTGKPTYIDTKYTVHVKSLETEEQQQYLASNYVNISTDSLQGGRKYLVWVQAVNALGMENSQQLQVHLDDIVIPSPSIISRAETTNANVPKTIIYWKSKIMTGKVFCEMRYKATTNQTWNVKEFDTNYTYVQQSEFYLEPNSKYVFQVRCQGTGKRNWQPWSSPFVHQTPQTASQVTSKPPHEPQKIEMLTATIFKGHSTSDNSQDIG

T2: Recombinant human IL-23 receptor (IL-23R) extracellular domain (ECD) protein (human, UniProt Q5VWK5 24-355)
T2 construct: also called human IL-23R ECD; hu IL-23R ECD
T2 sequence: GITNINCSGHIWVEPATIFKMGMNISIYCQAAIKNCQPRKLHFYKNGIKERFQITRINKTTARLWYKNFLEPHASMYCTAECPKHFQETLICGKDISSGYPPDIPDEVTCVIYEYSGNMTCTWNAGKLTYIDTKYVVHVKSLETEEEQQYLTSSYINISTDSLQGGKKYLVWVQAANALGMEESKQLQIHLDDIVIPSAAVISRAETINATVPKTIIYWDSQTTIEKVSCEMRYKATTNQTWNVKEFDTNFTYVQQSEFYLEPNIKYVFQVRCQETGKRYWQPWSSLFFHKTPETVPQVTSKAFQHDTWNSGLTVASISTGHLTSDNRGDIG

B1: I23RB169 (antibody, mouse IgG2a, kappa, V domains shown)
VH: QIQLVQSGPELKKPGETVKISCKASGYTFTTVGMQWVQKMPGKGFKWIGWINTHSGEPKYTDDFKGRFAFSLETSASTAYLQISNLKSEDTATYFCARSSALTGAFAYWGQGTLVTVSS
VL: DIKMTQSPASLAVSLGQRATISCRASKSVSTSDYSYMHWYQQKPGQPPKLLIYLASNLESGVPARFSGSGSGTDFTLNIHPVEEEDAATYYCQHSRELPRTFGAGTKLELKR
notes: mouse immunization; mouse IgG2a/kappa
B2: I23RB27 (antibody, mouse IgG2a, kappa, V domains shown)
VH: QVQLKESGPDLVQPSQTLSLTCTVSGFSLTSYGVHWVRQPPGKGLEWVGTLGWDDKKSYNSALKSRLSISRDTSKSQVFLKLSSLQTEDTAMYYCTKEDVSYAMDFWGQGTTLTVSS
VL: DIQMTQSPTSLAVSLGQRATISCRASESVEYYGTSLMHWYQQKPGQPPKLLIYAASNVESGVPARFSGSGSGTDFSLNIHPVEEEDIAMYFCQQGKKVPWTFGAGTKLEMKR
notes: as for B1
B3: I23RB39 (antibody, mouse IgG2a, kappa, V domains shown)
VH: EVQLQQSGPELVKPGAPVKISCKASGYTFTNYYIHWVKQRPGQGLEWIGYIYPGNGGTAYNQKFKDKATLTADNPSSTAYMQLSSLTSEDSAVYFCARSRGGSRNYFDYWGQGTTLTVSS
VL: DIQMTQSHKFMSTSVGDRVSITCKASQDVSTAVAWYQQKPGQSPKLLIYSAFYRYTGVPDRFTGSGSGTDFTFTISSVQAEDLAVYYCQQHYSSPRTFGAGTKLELKR
notes: as for B1
B4: I23RB56 (antibody, mouse IgG2a, kappa, V domains shown)
VH: EVKLVESGGGLVKPGGSLKLSCAASGFTFSSYAMSWVRQTPEKRLEWVAAINSNDGSTYYPDTVKDRFTISRDNAKNTLYLQMSSLRSEDTALYYCARHFLYFSNFYYFDYWGQGTTLTVSS
VL: DIVMTQSPKFLLVSAGDRVTITCKASQSVSNDVAWYQQKPGQSPKLLIYYASNRYTGVPDRFTGSGYGTVFTFTISTVQAEDLAVYFCQQDYSSPFTFGSGTKLEIKR
notes: as for B1
B5: I23RB168 (antibody, mouse IgG2a, kappa, V domains shown)
VH: QIQLVQSGPELVKPGASVKMSCKTSGYTFTDYYINWVKQRPGQGLEWIGWIYPAINNTNYNEKFKGKATLTVDTSSRTAYMQLNSLTSEDSAVYFCAISRKPYFDYWGQGTTLTVSS
VL: DIQMTQSSSSFSVSLGDRVTITCKASEDLYNRLAWYQQKPGNAPRLLISGATSLGTGVLSRFSGSGSGKDYTLSITSLQTEDVATYYCQQYWSIPWTFGAGTKLELKR
notes: as for B1
B6: I23RB36 (antibody, mouse IgG2a, kappa, V domains shown)
VH: QIQLVQSGAELVKPGASVKLSCTTSGFNIKDTYIHWMKQRPEQGLEWIGRIDPANGNTIYASKFQGKATLTTDTSSNTAYMLLSSLTSGDTAVYYCTRGTSWFAYWGQGTTVTVSS
VL: DIVMTQSPKSMSMSVGERVTLSCKASENVGTSVSWFQQKPEQSPKLLIYGASNRYTGVPDRFTGSGSATDFTLTISSVQAEDLADYHCGQSYSYPRTFGGGTKLEIKR
notes: as for B1
B7: I23RB30 (antibody, mouse IgG2a, kappa, V domains shown)
VH: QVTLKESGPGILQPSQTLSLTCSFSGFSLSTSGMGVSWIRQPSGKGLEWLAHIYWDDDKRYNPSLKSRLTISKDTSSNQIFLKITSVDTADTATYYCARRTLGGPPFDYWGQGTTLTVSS
VL: DIVLTQSQRFMSTSVGDRVSITCKASQNIRTAVAWYQQKPGQSPKALIYLPSNRHTGVPDRFTGSGSGTDFTLTISNVQSEDLADYFCLQHWNYPLTFGAGTKLELKR
notes: as for B1
B8: I23RB188 (antibody, mouse IgG2a, kappa, V domains shown)
VH: QIQLVQSGPELKKPGETVKISCKASGYTFTNYGMNWVKQAPGKGLKWMGWINTYTGAPTYADDFKGRFAFSLETSASTAYLQINNFKNEDTATYFCARGNGYPYYYGINYWGQGTSVTVSS
VL: DVQMIQSPSSLSASLGERVSLTCRASQEISGNLSWLQQKPDGTIKRLIYAASTLDSGVPKRFSGSRSGSDYSLTISSLESEDFADYYCLQYASYPWTFGAGTRLEIKR
notes: as for B1
B9: I23RB58 (antibody, mouse IgG2a, kappa, V domains shown)
VH: EVKLVESGGGLVKPGGSLKLSCAASGFSFIIYTMSWVRQTPEKRLEWVAYITSGGGITYYPDSVKGRFTISRDNARNTLYLQMSSLRSEDTAMYYCARHEGDYYDDYYRIGYAMDYWGQGTSVTVSS
VL: DIVMTQTPASLAVSLGQRATISCRASESVDSYGNSFMHWYQQKPGQPPKLLIYRASNLESGIPARFSGSGSRTDFTLTINPVEADDVATYYCQQSNEDPLTFGAGTKLEMKR
notes: as for B1
B10: I23RB182 (antibody, mouse IgG2a, kappa, V domains shown)
VH: EVQLQQSGPGLVKPSQSLSLTCSVTGYSITSGYFWNWLRQFPGSKLEWMGFIDNDGSNDYNPSLKNRISITRDTSKNQFFLRLNSVTTEDTATYYCARGRLGFFDSWGPGTTLTVSS
VL: DIVMTQSPAIMSASLGEKVTMSCRASSSVNYMYWYQQKSDASPKLWIYYTSNLAPGVPARFSGSGSGNSYSLTISSMEGEDAATYYCQQFTNSPWTFGAGTKLELKR
notes: as for B1

For one assay, the target named is T1, rat IL-23R extracellular domain (ECD) …. Description: SPR Biacore 8K, supernatant. In outline:
(§1)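 Antibodies (~150 RU) were captured and human or rat IL-23R ECD injected at 0.8–500 nM in 5-fold steps, at 25 °C in HBS-P+ with 100 μg/ml BSA. Association ran 3 min at 50 μL/min, followed by 30 min dissociation. Ka, Kd and KD came from a Langmuir 1:1 fit.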
On the technique in general: In SPR one partner is held on a chip, and binding of the other changes the refractive index at the surface.
As for B1, the binding result was “no binding (tested: 500 nM)”.
Still for that read-out and setting: in the case of B2 it was “no binding (tested: 500 nM)”.
The same measure, in the same setting: in the case of B3 it was “no binding (tested: 500 nM)”.
Broadly, the Kd is the free concentration of one partner at which half of the binding sites on the other are occupied at equilibrium, for simple one-to-one binding. Broadly, the koff is the rate constant with which the complex falls apart. As a reminder, the kon is a measure of how fast the partners come together. In turn, B4 came in with a Kd of 715 nM, a dissociation rate constant (koff) of 0.0642 s⁻¹ and an on-rate constant (kon) of 89700 M⁻¹ s⁻¹.
As for B5, the binding result was “no binding (tested: 500 nM)”.
B6: the binding result is on record as “no binding (tested: 500 nM)”.
In turn, B7 gave a Kd of 306 nM, a dissociation rate constant (koff) of 0.00909 s⁻¹ and a kon of 29800 M⁻¹ s⁻¹.
With B8, the binding result is recorded as “no binding (tested: 500 nM)”.
Consider B9, for which the binding result is listed as “no binding (tested: 500 nM)”.
Turning to B10, the binding result is reported as “no binding (tested: 500 nM)”.

In a further assay the target is T2, Recombinant human IL-23 receptor …. Description: SPR Biacore 8K, supernatant, analysis 1. In outline: as §1
B1: the Kd turned out to be 91.3 nM, the koff stood at 0.0116 s⁻¹ and the kon amounted to 128000 M⁻¹ s⁻¹.
Take B2: the Kd came out at 11.4 nM, the koff was 0.00372 s⁻¹ and the kon turned out to be 325000 M⁻¹ s⁻¹.
In the same order, the values of B3 are 32 nM, 0.00739 s⁻¹ and 231000 M⁻¹ s⁻¹.
In the same order, the values of B4 are 68.4 nM, 0.0115 s⁻¹ and 168000 M⁻¹ s⁻¹.
The corresponding values for B5 are 0.279 nM, 0.000118 s⁻¹ and 424000 M⁻¹ s⁻¹.
On to B6, for which the Kd stood at 13.7 nM, the dissociation rate constant (koff) was found to be 0.00118 s⁻¹ and the kon was found to be 86400 M⁻¹ s⁻¹.
The corresponding values for B7 are 46.2 nM, 0.0101 s⁻¹ and 220000 M⁻¹ s⁻¹.
In the same order, the values of B8 are 13.3 nM, 0.0013 s⁻¹ and 98200 M⁻¹ s⁻¹.
In the same order, the values of B9 are 16.2 nM, 0.00532 s⁻¹ and 328000 M⁻¹ s⁻¹.
For B10, the Kd was 49.8 nM, the dissociation rate constant (koff) is 0.00194 s⁻¹ and the kon worked out at 38900 M⁻¹ s⁻¹.

The target is the same in the next assay. Description: SPR Biacore 8K, supernatant, analysis 2. In outline: as §1
For the molecule B1, the Kd was 34.8 nM, the dissociation rate constant (koff) was found to be 0.00427 s⁻¹ and the kon turned out to be 123000 M⁻¹ s⁻¹.
In the same order, the values of B2 are 18.7 nM, 0.00416 s⁻¹ and 223000 M⁻¹ s⁻¹.
Regarding B3, the dissociation constant Kd stood at 14.9 nM, the koff was 0.00716 s⁻¹ and the kon amounted to 482000 M⁻¹ s⁻¹.
With B4, the dissociation constant (Kd) was 25.5 nM, the koff worked out at 0.00898 s⁻¹ and the on-rate (kon) is 352000 M⁻¹ s⁻¹.
Consider B5, for which the Kd came out at 0.422 nM, the koff was determined as 0.000155 s⁻¹ and the kon is 368000 M⁻¹ s⁻¹.
In the case of B6, the Kd came out at 2.18 nM, the koff worked out at 0.00129 s⁻¹ and the kon was determined as 592000 M⁻¹ s⁻¹.
On to B7, for which the Kd is 35.9 nM, the koff was 0.00763 s⁻¹ and the kon worked out at 212000 M⁻¹ s⁻¹.
The corresponding values for B8 are 18.9 nM, 0.00151 s⁻¹ and 79800 M⁻¹ s⁻¹.
The corresponding values for B9 are 22.5 nM, 0.00523 s⁻¹ and 233000 M⁻¹ s⁻¹.
On to B10, for which the Kd stood at 43.7 nM, the koff came to 0.00394 s⁻¹ and the kon was determined as 90200 M⁻¹ s⁻¹.
